For experiment [1], the target named is T1, thermolysin-cleaved EBOV GP on Jurkat-GP cells (cleaved GP) (Zaire ebolavirus, Makona (GP1 core …, strain)).
T1 chain 1: not shown
T1 chain 2: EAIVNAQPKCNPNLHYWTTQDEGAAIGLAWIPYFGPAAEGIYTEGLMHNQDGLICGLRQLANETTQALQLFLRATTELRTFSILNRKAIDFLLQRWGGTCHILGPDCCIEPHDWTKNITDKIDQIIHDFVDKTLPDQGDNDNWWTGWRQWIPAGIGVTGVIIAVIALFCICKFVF

The target of experiment [2] is EBOV GP ectodomain residues 1-636 (GPec) (Zaire ebolavirus, strain  …, UniProt Q05320).

The values that follow come from PMC6908968 (Cell, 2019).

B1: 9.1.c1617 (antibody, V domains shown)
VH: QVQFVESGGGLVKPGGSLRLSCTTSGFTFSDYYMSWIRQAPGKGLEWVSYISRSGNIIYYPDSVKGRFTISRDNAKNSLYLQMNSLRVEDTAVYYCAGGVQRGYNYYYYGMYVWGQGITVTVSS
VL: DIVMTQSPLSLPVTPGEPASISCRSSQSLLHSNGYNYLDWYLQRPGQSPQLLIYLGSNRASGVPDRFSGSGSGTDFTLKISRVEAEDFGFYYCMQALQTPYTFGQGTKLEIR
As for B1, the binding result in experiment [1] and in experiment [2] was “binds” each time.

B2: 9.1.c1965 (antibody, V domains shown)
VH: QVQLVQSGAEVKKPGASVKVSCKASGYTFTRYGINWVRQAPGQGLEWMGWISAYNGHTSYAQKLQGRVTMTTDTSTSTAYMELSSLRSDDTAVYYCARDAGMVRPYYFDYWGQGTLVTVSS
VL: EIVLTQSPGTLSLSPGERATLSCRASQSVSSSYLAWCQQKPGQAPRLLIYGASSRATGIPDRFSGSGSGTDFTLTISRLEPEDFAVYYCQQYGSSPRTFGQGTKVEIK
With B2, the binding result in experiment [1] and in experiment [2] was “binds” in each case.

B3: 9.1.c1533 (antibody, V domains shown)
VH: QVQLQESGPGLVKPSGTLSLTCTVSGGSISSNNWWSWVRQSPGKGLEWIGEIYHSGSTNYNPSLKSRVTISVDKSKNQFSLKVSSVTAADTAVYYCARGDQLIYYFDYWGQGTLVTVSS
VL: QSALTQPASVSGSPGQSITISCTGSSSDVGVYDFVSWYQQHPGKAPKLMIYEVSNRPSGVSNRFSGSKSGNTASLTISGLQAEDEANYYCSSYTSSITNVVFGGGTKLTVL
For the molecule B3, the binding result in experiment [1] and in experiment [2] was “binds” in each case.

B4: 9.1.c1482 (antibody, V domains shown)
VH: QLQLQESGPGLVKPSETLSLTCTVSGGSITSGSNYWGWIRQSPGKGLEWIGSIYYSGSTYYNPSLKSRVTTSVDTSKNQFSLRMSSVTAADTALYYCVRHLSTELLFGCFDPWGQGTLVTVSS
VL: DIQMTQSPSTLSASVGDRVTITCRASQSITGWLAWYQQKPGKAPKLLIYDASSLESGVPSRFSGSGSGTEFTLTISSLQPDDFATYYCLQYHSYSSFGQGTKLEIK
As for B4, the binding result in experiment [1] and in experiment [2] was “binds” each time.

B5: 9.1.c2296 (antibody, V domains shown)
VH: QVQLVESGGGVVHPGRSLRLSCAASGFTFSTYGMHWVRQAPGKGLEWVAVISYDGTNKYYADSVKGRFTTSRDNSKNTLYLQMNSLRAEDTAVYYCAKGEAYYDILTGNIDMWGQGTMVTVSS
VL: DIQMTQSPSTLSASVGDRVTITCRASQSISYWLAWYQQKPGKAPKVLIYDVSSLESGVPSRFSGSGSETEFTLTISSLQPDDFATYYCQQYHSYPLTFGGGTKVEIK
Regarding B5, the binding result in experiment [1] and in experiment [2] was “binds” each time.

B6: 5.6.c4516 (antibody, V domains shown)
VH: EVHLVESGGGLVQRGGSLRLSCVASKFSFSFYSMGWVRQPPGKGLEWVSFISISGTTIYYEDSVKGRFTISRDDAKNSLYLQMNSLRDEDTAVYYCARIPQAAFHFDYWGQGTLVAVSS
VL: QSALTQPASVSGSPGQSITISCTGSSSDVGSYNLVSWYQQHPGKAPKLMIYEGSSRPSGVSNRFSGSKSGNTASLTISGLQAEDEADYYCCAYAGTRTWLFGGGTKVTVL
As for B6, the binding result in experiment [1] and in experiment [2] was “binds” each time.

B7: 9.1.c1500 (antibody, V domains shown)
VH: QLQLQESGPGLVKPSETLSLTCTVSGGSISSSSYFWGWIRQPPGKGLELIGIIYYTGNTNYNPSLKSRVTISVDTSKNQFSLKLSSVTAADTAVYYCARSLEAHLLYYYAMDVWGQGTTVTVFS
VL: QSALTQPRSVSGSPGQSVTISCTGTSSDVGGYNYVSWYQQHPGKAPKLMIYDVSQRPSGVPDRFSGSKSGNTASLTISGLQAADEADYYCCSYAGSSWVFGGGTKLTVL
As for B7, the binding result in experiment [1] and in experiment [2] was “binds” each time.

B8: 9.1.c1853 (antibody, V domains shown)
VH: EVQLVQSGAEVKKPGESLRISCKGSGNSFSSYWISWVRQKPGKGLEWMGRIDPSDSYTSYSPSFQGHVTISADKTNSTAYLQWSGLKASDTAVYYCAREVAGEEIFYYYYMDVWGKGTPVTVSS
VL: EIVLTQSPVTLSLSPGEKATLSCRASQSVISSYLVWYQQKPGQAPRLLIYGASNRASGIPDRFSGSGSGTDFTLTISRLEPEDFAVYYCQLYGSLPRWTFGQGTEVQIK
Turning to B8, the binding result in experiment [1] and in experiment [2] was “binds” each time.
